Experimental data published in PMC10960945, “A nanobody inhibitor of Fascin-1 actin-bundling activity and filopodia formation” (Open Biology, 2024).

target: Fascin-1 1-493 (full-length human Fascin-1 WT, untagged) (human, UniProt Q16658); test: pull-down; in vitro co-precipitation of recombinant proteins: His-tagged Nbs immobilised on Nickel Sepharose as bait for untagged Fascin-1; SDS-PAGE; conditions: both partners purified

Row | Binder | binding result
1 | Nb 3B9 (VHH, Eluted in SEC as a dimer and a monomer population; the two were kept separate in the later assays and counted as two of the 14 Nbs; not shown: His-tag, C-terminal, kept) VHH: QVQLQESGGGLVQAGGSLRLSCAASGRTFSSYAMGWFRQAPGMEREFVAAIPWIGGNTYYADSVKGRFTISRDNAKTLYLLMNSLKPEDTALYYCAARAHSYVLSTSPSHYDYWGQGTQVTVSS | binds
2 | Nb 3G9 (VHH, Eluted in SEC as a dimer and a monomer population; the two were kept separate in the later assays and counted as two of the 14 Nbs; not shown: His-tag, C-terminal, kept) VHH: QVQLQESGGGLVQAGDSLRLSCAASRRTSNTYAMGWFRQAPGKEREFVAAIPWIGGNTYYADSVKGRFTISRDNAKTLYLLMNSLKPEDTALYYCAARAHSYVLSTSPSHYDYWGQGTQVTVSS | binds

More lines, now with the values ahead:

Row | binding result | Binder
3 | binds | Nb 3H7 (VHH, also called nanobody 3H7; not shown: His-tag, C-terminal, kept) VHH: QVQLQESGGGLVQAGGSLRLSCAGPVRAFNTYAMGWFRQAPGKEREFVAAITRSGDVTYYSNSVKGRFTISRENAKNTVYLHMNSLKPEDTAVYSCAADAQLTPLNPRAQEYAYWGQGTQVTVSS
4 | binds | Nb 3G11 (VHH, also called nanobody 3G11; not shown: His-tag, C-terminal, kept) VHH: QVQLQESGGGLVQAGGSLRLSCAVSGRLNSRYSMGWFRQAPGKEREFVAVVKWTTGGTMYADSVKGRFTISRDNRKNTVYLQMNTLKPEDTALYYCASRPDYSNSYYYTTVSDYSDWGQGTQVTVSS
